This note sets out measurements from article PMC11853100 (2025).

In this assay the target is T1, Pneumolysin (Ply) (Streptococcus pneumoniae, UniProt Q04IN8).
T1 chain: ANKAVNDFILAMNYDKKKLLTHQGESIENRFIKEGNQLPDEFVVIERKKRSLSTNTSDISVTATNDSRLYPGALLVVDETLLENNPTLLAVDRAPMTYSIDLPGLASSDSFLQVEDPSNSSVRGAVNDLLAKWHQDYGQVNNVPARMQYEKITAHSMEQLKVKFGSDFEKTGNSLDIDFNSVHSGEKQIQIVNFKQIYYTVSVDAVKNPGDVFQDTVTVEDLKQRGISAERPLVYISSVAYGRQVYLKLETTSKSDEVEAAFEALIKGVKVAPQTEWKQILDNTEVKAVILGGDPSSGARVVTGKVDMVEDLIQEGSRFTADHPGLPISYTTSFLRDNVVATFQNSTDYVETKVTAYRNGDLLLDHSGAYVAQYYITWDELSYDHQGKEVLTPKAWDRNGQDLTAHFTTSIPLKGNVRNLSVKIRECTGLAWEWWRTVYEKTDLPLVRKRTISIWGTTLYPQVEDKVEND
Nature of the assay: ITC; given as Ka.

By Kd is commonly meant the constant that tells how readily two partners part at equilibrium. A higher Kd goes with weaker binding.

B1: SpnPrsA (protein)
chain: CSKGSEGADLISMKGDVITEHQFYEQVKNNPSAQQVLLNMTIQKVFEKQYGSELDDKEVDDTIAEEKKQYGENYQRVLSQAGMTLETRKAQIRTSKLVELAVKKVAEAELTDEAYKKAFDEYTPDVTAQIIRLNNEDKAKEVLEKAKAEGADFAQLAKDNSTDEKTKENGGEITFDSASTEVPEQVKKAAFALDVDGVSDVITATGTQAYSSQYYIVKLTKKTEKSSNIDDYKEKLKTVILTQKQNDSTFVQSIIGKELQAANIKVKDQAFQNIFTQYIGGGDSSSSSSTSNE
For B1, the affinity, expressed as Kd, was 119 nM.
